Measurements from patent US8044021B2, “Sustained release of apo A-I mimetic peptides and methods of treatment” (Abbott Cardiovascular Systems Inc., priority 2007, dated 2011).
Ends that are not written are not given here.

Key:
[1] = turbidity change of DMPC multilamellar vesicles (MLV) after mixing with peptide; assay type: physicochemical
Description: A mimetic peptide, SEQ ID NO: 4, was mixed with multilamellar vesicles comprised of DMPC. A DMPC chloroform solution was gently dried by nitrogen stream in the fume hood or by rotor evaporator. Resultant lipid film was further dried in vacuum desiccators and subjected to vacuum for at least 3 hours to remove residual chloroform. Phosphate buffered saline (PBS) was added to the lipid film and mixed using a vortex mixer to prepare an MLV suspension (2.5 mg/mL). The peptide was dissolved in PBS (1 mg/mL) then mixed with the same volume of MLV suspension at room temperature. […] At 0.5 mg/mL mimetic peptide in solution, the absorbance at 400 nm is zero. At 1.25 mg/mL DMPC in solution, the absorbance at 400 nm is 0.1. When the two solutions are combined and after approximately 5 minutes of mixing, the absorbance begins to approach zero. After approximately 15 minutes of mixing, the solution becomes completely clear, i.e., the absorbance is zero, thus evidencing mimetic peptide/phospholipid complexing.

[2] = circular dichroism (CD) spectra, calculated percent secondary structure; assay type: physicochemical
[3] = CD spectra after heating then cooling; assay type: physicochemical; conditions: 25° C., heated to 70° C., cooled back to 25° C.; 0.0625-0.5 mg/mL
Description: As shown in each chart (vii) through (x), a CD spectrum of the mimetic peptide was obtained at t1=25° C., then heated to t2=70° C., then cooled back to t3=25° C. for varying concentrations, e.g., 0.5 mg/mL mimetic peptide, 0.25 mg/mL mimetic peptide, 0.125 mg/mL mimetic peptide, and 0.0625 mg/mL mimetic peptide. The spectrums at t and t3 show a substantially identical spectrum for each of t1 and t3 at the various concentrations, thus indicating the mimetic peptide's secondary structure change is reversible when subjected to heat.

[4] = system: reverse cholesterol transport; conditions: cited from earlier work

Compound: CCCCCCCCCCCCCC(=O)OC[C@H](COP(=O)([O-])OCC[N+](C)(C)C)OC(=O)CCCCCCCCCCCCC [DMPC, dimyristoylphosphatidylcholine, reference compound]
- absorbance at 400 nm ([1]; 1.25 mg/mL DMPC in solution (MLV in PBS)): 0.1

Compound: Ac-DWFKAFYDKVAEKFKEAF-NH2 [SEQ ID NO: 4, 18-mer peptide, 4F, N-acetyl, C-amide]
- alpha helicity ([2]; 0.125 mg/mL mimetic peptide): 10.5%
- alpha helicity ([2]; 0.25 mg/mL mimetic peptide): 16%
- alpha helicity ([2]; 0.5 mg/mL mimetic peptide): 19.5%
- secondary structure change when subjected to heat [3]: reversible
- absorbance at 400 nm ([1]; 0.5 mg/mL mimetic peptide in solution (PBS)): zero

Compound: DWFKAFYDKVAEKFKEAF (not fully specified) [D-4F, 18-mer apo A-I mimetic peptide 4F, D enantiomer]
- reverse cholesterol transport in vitro ([4]; when a phospholipid complex is presented): function more effectively
- reverse cholesterol transport ([4]; without a lipid complex): effective

Compound: PALEDLRQGLLPVLESFKVFLSALEEYTKKLNTQ [33-mer peptide mimetic]
- need of phospholipid complex for effective reverse cholesterol transport [4]: requires phospholipid complex formation
